From US20230212549A1 (3B PHARMACEUTICALS, published 2023)
Values joined by “and” are separate entries in the source; they are usually repeats but may differ in a detail not shown here. Identical values can stand only once. Numbered stars: 1 amine (or outer) side, 2 acyl side, 3 side chain; on linkers, the order of the positions; unused ones are H or OH. Bridge positions count the residues as written; N and C are the ends. Square brackets hold non-standard residues; d marks the D form. * marks the point of attachment. DOTA = O=C(O)CN1CCN(CC(=O)O)CCN(CC(=O)*)CCN(CC(=O)O)CC1; Pro(trans-4-F) = O=C(O)[C@@H]1C[C@@H](F)CN1; Phe(4-Cl) = N[C@@H](Cc1ccc(Cl)cc1)C(=O)O; Phe(2-Cl) = N[C@@H](Cc1ccccc1Cl)C(=O)O; 2Nal = N[C@@H](Cc1ccc2ccccc2c1)C(=O)O; mXylylene = c1cc(C[*:1])cc(C[*:2])c1; Nle = CCCC[C@H](N)C(=O)O; Hexanoyl = CCCCCC(=O)*; Phb = not defined here; Mpa = O=C(O)CCS; Sar = CNCC(=O)O

B1: Hex-[Cys(3MeBn)-Pro-4Tfp-Thr-Glu-Phe-Cys]-NH2 (peptide)
peptide: Hexanoyl-CP[Pro(trans-4-F)]TEFC-NH2
modifications: linker 1-7 via mXylylene
SMILES: CCCCCC(=O)N[C@H]1CSCc2cccc(c2)CSC[C@@H](C(N)=O)NC(=O)[C@H](Cc2ccccc2)NC(=O)[C@H](CCC(=O)O)NC(=O)[C@H]([C@@H](C)O)NC(=O)[C@@H]2C[C@@H](F)CN2C(=O)[C@@H]2CCCN2C1=O
notes: also called 3BP-3352
B2: DOTA-Met-[Cys(3MeBn)-Pro-Pro-Thr-Glu-Phe-Cys]-Asp-His-Phe-Arg-Asp-NH2 (peptide)
peptide: {DOTA}-MCPPTEFCDHFRD-NH2
modifications: linker 2-8 via mXylylene
SMILES: CSCC[C@H](NC(=O)CN1CCN(CC(=O)O)CCN(CC(=O)O)CCN(CC(=O)O)CC1)C(=O)N[C@H]1CSCc2cccc(c2)CSC[C@@H](C(=O)N[C@@H](CC(=O)O)C(=O)N[C@@H](Cc2c[nH]cn2)C(=O)N[C@@H](Cc2ccccc2)C(=O)N[C@@H](CCCNC(=N)N)C(=O)N[C@@H](CC(=O)O)C(N)=O)NC(=O)[C@H](Cc2ccccc2)NC(=O)[C@H](CCC(=O)O)NC(=O)[C@H]([C@@H](C)O)NC(=O)[C@@H]2CCCN2C(=O)[C@@H]2CCCN2C1=O
B3: Ac-Met-[Cys(3MeBn)-Pro-Pro-Thr-Glu-phe-Cys]-Asp-His-Phe-Arg-Asp-NH2 (peptide)
peptide: Ac-MCPPTE[dF]CDHFRD-NH2
modifications: linker 2-8 via mXylylene
SMILES: CSCC[C@H](NC(C)=O)C(=O)N[C@H]1CSCc2cccc(c2)CSC[C@@H](C(=O)N[C@@H](CC(=O)O)C(=O)N[C@@H](Cc2c[nH]cn2)C(=O)N[C@@H](Cc2ccccc2)C(=O)N[C@@H](CCCNC(=N)N)C(=O)N[C@@H](CC(=O)O)C(N)=O)NC(=O)[C@@H](Cc2ccccc2)NC(=O)[C@H](CCC(=O)O)NC(=O)[C@H]([C@@H](C)O)NC(=O)[C@@H]2CCCN2C(=O)[C@@H]2CCCN2C1=O
notes: also called 3BP-3180
B4: DOTA-Nle-[Cys(3MeBn)-Pro-Pro-Thr-Glu-Phe-Cys]-Asp-His-Phe-Arg-Asp-NH2 (peptide)
peptide: {DOTA}-[Nle]CPPTEFCDHFRD-NH2
modifications: linker 2-8 via mXylylene
SMILES: CCCC[C@H](NC(=O)CN1CCN(CC(=O)O)CCN(CC(=O)O)CCN(CC(=O)O)CC1)C(=O)N[C@H]1CSCc2cccc(c2)CSC[C@@H](C(=O)N[C@@H](CC(=O)O)C(=O)N[C@@H](Cc2c[nH]cn2)C(=O)N[C@@H](Cc2ccccc2)C(=O)N[C@@H](CCCNC(=N)N)C(=O)N[C@@H](CC(=O)O)C(N)=O)NC(=O)[C@H](Cc2ccccc2)NC(=O)[C@H](CCC(=O)O)NC(=O)[C@H]([C@@H](C)O)NC(=O)[C@@H]2CCCN2C(=O)[C@@H]2CCCN2C1=O
notes: also called 3BP-3088
B5: Ac-Met-[Cys(3MeBn)-pro-Pro-Thr-Glu-Phe-Cys]-Asp-His-Phe-Arg-Asp-NH2 (peptide)
peptide: Ac-MC[dP]PTEFCDHFRD-NH2
modifications: linker 2-8 via mXylylene
SMILES: CSCC[C@H](NC(C)=O)C(=O)N[C@H]1CSCc2cccc(c2)CSC[C@@H](C(=O)N[C@@H](CC(=O)O)C(=O)N[C@@H](Cc2c[nH]cn2)C(=O)N[C@@H](Cc2ccccc2)C(=O)N[C@@H](CCCNC(=N)N)C(=O)N[C@@H](CC(=O)O)C(N)=O)NC(=O)[C@H](Cc2ccccc2)NC(=O)[C@H](CCC(=O)O)NC(=O)[C@H]([C@@H](C)O)NC(=O)[C@@H]2CCCN2C(=O)[C@H]2CCCN2C1=O
notes: also called 3BP-3176
B6: Hex-[Cys(3MeBn)-Pro-Pro-Thr-Glu-Ocf-Cys]-NH2 (peptide)
peptide: Hexanoyl-CPPTE[Phe(2-Cl)]C-NH2
modifications: linker 1-7 via mXylylene
SMILES: CCCCCC(=O)N[C@H]1CSCc2cccc(c2)CSC[C@@H](C(N)=O)NC(=O)[C@H](Cc2ccccc2Cl)NC(=O)[C@H](CCC(=O)O)NC(=O)[C@H]([C@@H](C)O)NC(=O)[C@@H]2CCCN2C(=O)[C@@H]2CCCN2C1=O
notes: also called 3BP-3368
B7: Ac-Met-[Cys(3MeBn)-Pro-Pro-Thr-Glu-Phe-Cys]-Asp-His-Phe-Ala-Asp-NH2 (peptide)
peptide: Ac-MCPPTEFCDHFAD-NH2
modifications: linker 2-8 via mXylylene
SMILES: CSCC[C@H](NC(C)=O)C(=O)N[C@H]1CSCc2cccc(c2)CSC[C@@H](C(=O)N[C@@H](CC(=O)O)C(=O)N[C@@H](Cc2c[nH]cn2)C(=O)N[C@@H](Cc2ccccc2)C(=O)N[C@@H](C)C(=O)N[C@@H](CC(=O)O)C(N)=O)NC(=O)[C@H](Cc2ccccc2)NC(=O)[C@H](CCC(=O)O)NC(=O)[C@H]([C@@H](C)O)NC(=O)[C@@H]2CCCN2C(=O)[C@@H]2CCCN2C1=O
notes: also called 3BP-3197
B8: Ac-Met-[Cys(3MeBn)-ala-Pro-Thr-Glu-Phe-Cys]-Asp-His-Phe-Arg-Asp-NH2 (peptide)
peptide: Ac-MC[dA]PTEFCDHFRD-NH2
modifications: linker 2-8 via mXylylene
SMILES: CSCC[C@H](NC(C)=O)C(=O)N[C@H]1CSCc2cccc(c2)CSC[C@@H](C(=O)N[C@@H](CC(=O)O)C(=O)N[C@@H](Cc2c[nH]cn2)C(=O)N[C@@H](Cc2ccccc2)C(=O)N[C@@H](CCCNC(=N)N)C(=O)N[C@@H](CC(=O)O)C(N)=O)NC(=O)[C@H](Cc2ccccc2)NC(=O)[C@H](CCC(=O)O)NC(=O)[C@H]([C@@H](C)O)NC(=O)[C@@H]2CCCN2C(=O)[C@@H](C)NC1=O
notes: also called 3BP-3215
B9: Phb-[Cys(3MeBn)-Pro-Pro-Thr-Gln-Phe-Cys]-Asp-NH2 (peptide)
peptide: Phb-CPPTQFCD-NH2
modifications: linker 1-7 via mXylylene; reading uncertain; also: printed as Phb-[Cys(3MeBn)-Pro-Pro-Thr-Gln-Phe-Cys]-Asp-NH2
notes: also called 3BP-3418
B10: Hex-[Cys(3MeBn)-Nmg-Pro-Thr-Glu-Phe-Cys]-NH2 (peptide)
peptide: Hexanoyl-C[Sar]PTEFC-NH2
modifications: linker 1-7 via mXylylene
SMILES: CCCCCC(=O)N[C@H]1CSCc2cccc(c2)CSC[C@@H](C(N)=O)NC(=O)[C@H](Cc2ccccc2)NC(=O)[C@H](CCC(=O)O)NC(=O)[C@H]([C@@H](C)O)NC(=O)[C@@H]2CCCN2C(=O)CN(C)C1=O
notes: also called 3BP-3347
B11: [3MeBn-Spa-Pro-Pro-Thr-Gln-Phe-Cys]-Asp-NH2 (peptide)
peptide: [Mpa]PPTQFCD-NH2
modifications: linker 1-7 via mXylylene
SMILES: C[C@@H](O)[C@@H]1NC(=O)[C@@H]2CCCN2C(=O)[C@@H]2CCCN2C(=O)CCSCc2cccc(c2)CSC[C@@H](C(=O)N[C@@H](CC(=O)O)C(N)=O)NC(=O)[C@H](Cc2ccccc2)NC(=O)[C@H](CCC(N)=O)NC1=O
notes: also called 3BP-3419
B12: DOTA-[Cys(3MeBn)-Pro-Pro-Thr-Glu-Phe-Cys]-Asp-His-Phe-Arg-Asp-NH2 (peptide)
peptide: {DOTA}-CPPTEFCDHFRD-NH2
modifications: linker 1-7 via mXylylene
SMILES: C[C@@H](O)[C@@H]1NC(=O)[C@@H]2CCCN2C(=O)[C@@H]2CCCN2C(=O)[C@@H](NC(=O)CN2CCN(CC(=O)O)CCN(CC(=O)O)CCN(CC(=O)O)CC2)CSCc2cccc(c2)CSC[C@@H](C(=O)N[C@@H](CC(=O)O)C(=O)N[C@@H](Cc2c[nH]cn2)C(=O)N[C@@H](Cc2ccccc2)C(=O)N[C@@H](CCCNC(=N)N)C(=O)N[C@@H](CC(=O)O)C(N)=O)NC(=O)[C@H](Cc2ccccc2)NC(=O)[C@H](CCC(=O)O)NC1=O
notes: also called 3BP-3174
B13: Ac-Met-[Cys(3MeBn)-Pro-Pro-Thr-Glu-Phe-Cys]-Asp-His-Phe-NH2 (peptide)
peptide: Ac-MCPPTEFCDHF-NH2
modifications: linker 2-8 via mXylylene
SMILES: CSCC[C@H](NC(C)=O)C(=O)N[C@H]1CSCc2cccc(c2)CSC[C@@H](C(=O)N[C@@H](CC(=O)O)C(=O)N[C@@H](Cc2c[nH]cn2)C(=O)N[C@@H](Cc2ccccc2)C(N)=O)NC(=O)[C@H](Cc2ccccc2)NC(=O)[C@H](CCC(=O)O)NC(=O)[C@H]([C@@H](C)O)NC(=O)[C@@H]2CCCN2C(=O)[C@@H]2CCCN2C1=O
notes: also called 3BP-3199
B14: Hex-[Cys(3MeBn)-Gly-Pro-Thr-Glu-Phe-Cys]-NH2 (peptide)
peptide: Hexanoyl-CGPTEFC-NH2
modifications: linker 1-7 via mXylylene
SMILES: CCCCCC(=O)N[C@H]1CSCc2cccc(c2)CSC[C@@H](C(N)=O)NC(=O)[C@H](Cc2ccccc2)NC(=O)[C@H](CCC(=O)O)NC(=O)[C@H]([C@@H](C)O)NC(=O)[C@@H]2CCCN2C(=O)CNC1=O
notes: also called 3BP-3345
B15: Hex-[Cys(3MeBn)-Pro-Pro-Thr-Glu-Phe-Cys]-NH2 (peptide)
peptide: Hexanoyl-CPPTEFC-NH2
modifications: linker 1-7 via mXylylene
SMILES: CCCCCC(=O)N[C@H]1CSCc2cccc(c2)CSC[C@@H](C(N)=O)NC(=O)[C@H](Cc2ccccc2)NC(=O)[C@H](CCC(=O)O)NC(=O)[C@H]([C@@H](C)O)NC(=O)[C@@H]2CCCN2C(=O)[C@@H]2CCCN2C1=O
notes: also called 3BP-3287
B16: Hex-[Cys(3MeBn)-Pro-Pro-Thr-Glu-2Ni-Cys]-NH2 (peptide)
peptide: Hexanoyl-CPPTE[2Nal]C-NH2
modifications: linker 1-7 via mXylylene
SMILES: CCCCCC(=O)N[C@H]1CSCc2cccc(c2)CSC[C@@H](C(N)=O)NC(=O)[C@H](Cc2ccc3ccccc3c2)NC(=O)[C@H](CCC(=O)O)NC(=O)[C@H]([C@@H](C)O)NC(=O)[C@@H]2CCCN2C(=O)[C@@H]2CCCN2C1=O
notes: also called 3BP-3362
B17: Hex-[Cys(3MeBn)-Pro-Pro-Thr-Glu-Pcf-Cys]-NH2 (peptide)
peptide: Hexanoyl-CPPTE[Phe(4-Cl)]C-NH2
modifications: linker 1-7 via mXylylene
SMILES: CCCCCC(=O)N[C@H]1CSCc2cccc(c2)CSC[C@@H](C(N)=O)NC(=O)[C@H](Cc2ccc(Cl)cc2)NC(=O)[C@H](CCC(=O)O)NC(=O)[C@H]([C@@H](C)O)NC(=O)[C@@H]2CCCN2C(=O)[C@@H]2CCCN2C1=O
notes: also called 3BP-3369

What follows are binders tested against Recombinant human FAP (R&D systems, #3715-SE) (human, UniProt Q12884 26-760) (assay: cell-based or functional assay).

Row | pIC50 Category (Activity) | Binder
1 | 7.1 pIC50 and 8 pIC50 | B1
2 | 6.1 pIC50 and 7 pIC50 | B2
3 | 6.1 pIC50 and 7 pIC50 | B3
4 | 6.1 pIC50 and 7 pIC50 | B4
5 | 6.1 pIC50 and 7 pIC50 | B5
6 | 7.1 pIC50 and 8 pIC50 | B6
7 | 6.1 pIC50 and 7 pIC50 | B7
8 | 6.1 pIC50 and 7 pIC50 | B8
9 | 6.1 pIC50 and 7 pIC50 | B9
10 | 7.1 pIC50 and 8 pIC50 | B10
11 | 6.1 pIC50 and 7 pIC50 | B11
12 | 6.1 pIC50 and 7 pIC50 | B12
13 | 7.1 pIC50 and 8 pIC50 | B13
14 | 7.1 pIC50 and 8 pIC50 | B14
15 | 7.1 pIC50 and 8 pIC50 | B15
16 | 6.1 pIC50 and 7 pIC50 | B16
17 | 6.1 pIC50 and 7 pIC50 | B17

Each binder was assayed against T1, fibroblast activation protein (FAP) on FAP-expressing human WI-38 fibroblasts (human, UniProt Q12884 1-760) (assay: competitive FACS, WI-38 cells, vs Cy5 tracer m3; C = pIC50 6.1-7.0).
T1 construct: also called human FAP

Row | pIC50 Category (FACS) | Binder
18 | 6.1 pIC50 and 7 pIC50 | B1
19 | 6.1 pIC50 and 7 pIC50 | B2
20 | 6.1 pIC50 and 7 pIC50 | B3
21 | 6.1 pIC50 and 7 pIC50 | B4
22 | 6.1 pIC50 and 7 pIC50 | B5
23 | 6.1 pIC50 and 7 pIC50 | B6
24 | 6.1 pIC50 and 7 pIC50 | B7
25 | 6.1 pIC50 and 7 pIC50 | B8
26 | 6.1 pIC50 and 7 pIC50 | B9
27 | 6.1 pIC50 and 7 pIC50 | B10
28 | 6.1 pIC50 and 7 pIC50 | B11
29 | 6.1 pIC50 and 7 pIC50 | B12
30 | 6.1 pIC50 and 7 pIC50 | B13
31 | 6.1 pIC50 and 7 pIC50 | B14
32 | 6.1 pIC50 and 7 pIC50 | B15
33 | 6.1 pIC50 and 7 pIC50 | B16
34 | 6.1 pIC50 and 7 pIC50 | B17
